Data on one substance can be found in patent US20240382606A1.

The assay concerns the target CD8 co-receptors on CD8+ T cells (OT-1 mouse splenocytes) (mouse) (UniProt P01731). Briefly: flow cytometry, noncognate APNs on OT-1 CD8+ splenocytes, in vitro. Background: In flow cytometry, cells or beads pass a laser one at a time.
Sequence of UniProt P01731 (P01731 28-247, chain 1 of 2): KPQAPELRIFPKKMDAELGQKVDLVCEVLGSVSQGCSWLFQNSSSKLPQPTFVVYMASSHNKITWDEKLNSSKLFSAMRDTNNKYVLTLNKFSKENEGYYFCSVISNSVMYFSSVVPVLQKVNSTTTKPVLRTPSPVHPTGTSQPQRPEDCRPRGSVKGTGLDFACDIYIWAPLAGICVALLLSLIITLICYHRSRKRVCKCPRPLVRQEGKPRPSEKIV
Sequence of UniProt P01731 (P10300 22-213, chain 2 of 2, further chain): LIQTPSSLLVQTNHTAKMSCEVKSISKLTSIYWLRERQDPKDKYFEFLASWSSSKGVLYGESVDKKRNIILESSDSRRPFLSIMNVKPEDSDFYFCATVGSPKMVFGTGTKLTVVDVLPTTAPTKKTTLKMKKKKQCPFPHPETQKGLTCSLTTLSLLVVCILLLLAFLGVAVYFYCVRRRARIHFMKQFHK

As to “NS2/K^b antigen-presenting nanoparticle (APN): NS2 peptide RTFSFQLI on H2-K^b on an mRNA lipid nanoparticle (peptide-MHC)”, the percent cross-reactivity stood at 10%.
